{
  "source": "patent US11541086",
  "target": "amyloid-beta oligomers prepared from synthetic Aβ1-42 (UniProt P05067)",
  "sequence (P05067 672-713 limits assumed)": "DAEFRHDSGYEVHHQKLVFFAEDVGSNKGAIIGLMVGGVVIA",
  "assay": "cell-based or functional assay",
  "data": [
    {"substance": "NUsc1 scFv expressed and secreted by neurons transduced with the AAV9 vector AAV-NUsc1", "values": [
      {"measurement": "AβO binding to dendrites in hippocampal neurons (NU4 immunoreactivity)", "result": 50, "unit": "% decrease"}
    ]}
  ]
}
